Data reported in patent US20130012432A1 (Novo Nordisk, published 2013).
Positions of bridges follow the written chain, without caps; N, C: chain ends. Non-standard residues stand in square brackets, D forms with d. Groups on a side chain read outwards from the residue. Primed or numbered codes have the meaning given here. *: point of attachment. X5 = NH(2-(2-(2-(17-carboxyheptadecanoylamino)ethoxy)ethoxy)ethyl), O=C(O)CCCCCCCCCCCCCCCCC(=O)NCCOCCOCCN*; X6 = (2-(2-(17-carboxyheptadecanoylamino)ethoxy)ethoxy)acetyl, O=C(O)CCCCCCCCCCCCCCCCC(=O)NCCOCCOCC(=O)*; X3 = (2-(2-(15-carboxypentadecanoylamino)ethoxy)ethoxy)acetyl, O=C(O)CCCCCCCCCCCCCCC(=O)NCCOCCOCC(=O)*; biscarboxymethyl = Lys(biscarboxymethyl) = Nepsilon-bis(carboxymethyl)-L-lysine; Palmitoyl(16-(5-tetrazolyl)) = O=C(CCCCCCCCCCCCCCCc1nnn[nH]1)*; biscarboxymethyl(3) = Nepsilon-bis(carboxymethyl) on Lys; Lys(CH2CO2H)2 = N[C@@H](CCCCN(CC(=O)O)CC(=O)O)C(=O)O; C17 diacid = O=C(O)CCCCCCCCCCCCCCCC(=O)*; C14 diacid = O=C(O)CCCCCCCCCCCCC(=O)*; NTA = O=C(O)CN(CC(=O)O)CC(=O)*; hCys = N[C@@H](CCS)C(=O)O; Orn = NCCC[C@H](N)C(=O)O; Dab = NCC[C@H](N)C(=O)O; Dap = NC[C@H](N)C(=O)O; AEEA = NCCOCCOCC(=O)O

What follows are binders tested against T1, human MC4 receptor (human, UniProt P32245 1-332) (assay: 125I-NDP-α-MSH displacement, BHK-human MC4 membranes (Assay V);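 note: Filter-retained radioactivity read by gamma counting, with affinity obtained through non-linear regression fitting of the binding curves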).
T1 construct: whole, on cells; Assayed as membranes of BHK cells stably expressing the receptor; also called melanocortin receptor subtype 4; melanocortin receptor 4
T1 sequence (P32245 whole entry): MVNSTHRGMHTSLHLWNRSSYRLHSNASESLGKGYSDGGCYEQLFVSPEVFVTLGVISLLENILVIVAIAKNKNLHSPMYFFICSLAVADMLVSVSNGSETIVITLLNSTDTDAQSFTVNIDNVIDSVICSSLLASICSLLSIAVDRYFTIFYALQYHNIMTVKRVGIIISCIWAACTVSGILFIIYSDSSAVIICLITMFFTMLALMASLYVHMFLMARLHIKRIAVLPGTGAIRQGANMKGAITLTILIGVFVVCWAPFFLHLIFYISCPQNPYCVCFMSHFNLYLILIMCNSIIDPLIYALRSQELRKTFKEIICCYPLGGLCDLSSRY
Protocol: The membranes were prepared from frozen or fresh cells that were homogenized in 20 mM HEPES pH 7.1, 5 mM MgCl₂ and 1 mg/ml bacitracin and centrifuged at 15000 rpm at 4° C., 10 min in a Sorvall RC 5B plus, SS-34 rotor. The supernatant was discarded, and the pellets were re-suspended in buffer, homogenized and centrifuged two more times. The final pellets were resuspended in the buffer mentioned above, and the protein concentration was measured and adjusted with buffer to 14 to 17 mg/ml and the membrane preparation were kept at −80° C. until assay. The assay was run directly on a dilution of this cell membrane suspension, without any further preparation. The BHK cell membranes are kept at −80° C. until assay, and the assay is run directly on a dilution of this cell membrane suspension, without further preparation. The suspension is diluted to give maximally 10% specific binding, i.e. to approx. 50-100 fold dilution. […] Test compounds were dissolved in DMSO and diluted in binding buffer. Radiolabelled ligand and membranes were diluted in binding buffer. The incubation was stopped by dilution with 2×100 μl ice-cold 0.9% NaCl. The radioactivity retained on the filters was counted using a Cobra II auto gamma counter.
The data were analysed by non-linear regression analysis of binding curves, using the Windows™ program GraphPad™ Prism (GraphPad Software, USA).

Row | Binder | Ki [nM]
1 | Ac-EQ[dF]RW[Orn]PPRDK(biscarboxymethyl(3))K([AEEA-Palmitoyl(16-(5-tetrazolyl))])-NH2 (lactam 1-6) | 58
2 | Ac-EH[dF]RW[Dap]PPRDK(biscarboxymethyl(3))K([AEEA-Palmitoyl(16-(5-tetrazolyl))])-NH2 (lactam 1-6) | 13
3 | Ac-DH[dF]RW[Dap]PPRDK(biscarboxymethyl(3))K([AEEA-Palmitoyl(16-(5-tetrazolyl))])-NH2 (lactam 1-6) | 71.5
4 | Ac-[Orn]H[dF]RWEPSKEESSEK([AEEA-C17 diacid])-NH2 (lactam 1-6; SMILES CC(=O)N[C@H]1CCCNC(=O)CC[C@@H](C(=O)N2CCC[C@H]2C(=O)N[C@@H](CO)C(=O)N[C@@H](CCCCN)C(=O)N[C@@H](CCC(=O)O)C(=O)N[C@@H](CCC(=O)O)C(=O)N[C@@H](CO)C(=O)N[C@@H](CO)C(=O)N[C@@H](CCC(=O)O)C(=O)N[C@@H](CCCCNC(=O)COCCOCCNC(=O)CCCCCCCCCCCCCCCC(=O)O)C(N)=O)NC(=O)[C@H](Cc2c[nH]c3ccccc23)NC(=O)[C@H](CCCNC(=N)N)NC(=O)[C@@H](Cc2ccccc2)NC(=O)[C@H](Cc2c[nH]cn2)NC1=O) | 38
5 | Ac-[hCys]H[dF]RWCPPKD[Dap](NTA)K([AEEA-Palmitoyl(16-(5-tetrazolyl))])-OH (disulfide 1-6; SMILES CC(=O)N[C@H]1CCSSC[C@@H](C(=O)N2CCC[C@H]2C(=O)N2CCC[C@H]2C(=O)N[C@@H](CCCCN)C(=O)N[C@@H](CC(=O)O)C(=O)N[C@@H](CNC(=O)CN(CC(=O)O)CC(=O)O)C(=O)N[C@@H](CCCCNC(=O)COCCOCCNC(=O)CCCCCCCCCCCCCCCc2nnn[nH]2)C(=O)O)NC(=O)[C@H](Cc2c[nH]c3ccccc23)NC(=O)[C@H](CCCNC(=N)N)NC(=O)[C@@H](Cc2ccccc2)NC(=O)[C@H](Cc2c[nH]cn2)NC1=O) | 6.4
6 | Ac-EH[dF]RW[Orn]PPDK(biscarboxymethyl)K(X3)-NH2 (lactam 1-6) | 64
7 | Ac-KH[dF]RWDPPRD[Lys(CH2CO2H)2]K([AEEA-Palmitoyl(16-(5-tetrazolyl))])-NH2 (lactam 1-6; SMILES CC(=O)N[C@H]1CCCCNC(=O)C[C@@H](C(=O)N2CCC[C@H]2C(=O)N2CCC[C@H]2C(=O)N[C@@H](CCCNC(=N)N)C(=O)N[C@@H](CC(=O)O)C(=O)N[C@@H](CCCCN(CC(=O)O)CC(=O)O)C(=O)N[C@@H](CCCCNC(=O)COCCOCCNC(=O)CCCCCCCCCCCCCCCc2nnn[nH]2)C(N)=O)NC(=O)[C@H](Cc2c[nH]c3ccccc23)NC(=O)[C@H](CCCNC(=N)N)NC(=O)[C@@H](Cc2ccccc2)NC(=O)[C@H](Cc2c[nH]cn2)NC1=O) | 3.87
8 | Ac-KH[dF]RWEPPRD[Lys(CH2CO2H)2]K([AEEA-Palmitoyl(16-(5-tetrazolyl))])-NH2 (lactam 1-6; SMILES CC(=O)N[C@H]1CCCCNC(=O)CC[C@@H](C(=O)N2CCC[C@H]2C(=O)N2CCC[C@H]2C(=O)N[C@@H](CCCNC(=N)N)C(=O)N[C@@H](CC(=O)O)C(=O)N[C@@H](CCCCN(CC(=O)O)CC(=O)O)C(=O)N[C@@H](CCCCNC(=O)COCCOCCNC(=O)CCCCCCCCCCCCCCCc2nnn[nH]2)C(N)=O)NC(=O)[C@H](Cc2c[nH]c3ccccc23)NC(=O)[C@H](CCCNC(=N)N)NC(=O)[C@@H](Cc2ccccc2)NC(=O)[C@H](Cc2c[nH]cn2)NC1=O) | 179
9 | Ac-[Dab]H[dF]RWDPPREK(biscarboxymethyl(3))SS-X5 (lactam 1-6) | 12.5
10 | Ac-EH[dF]RW[Orn]PPDK(biscarboxymethyl)K(X6)-NH2 (lactam 1-6) | 8.6
11 | Ac-KH[dF]RWDPPHE[Lys(CH2CO2H)2]K([AEEA-C17 diacid])-NH2 (lactam 1-6; SMILES CC(=O)N[C@H]1CCCCNC(=O)C[C@@H](C(=O)N2CCC[C@H]2C(=O)N2CCC[C@H]2C(=O)N[C@@H](Cc2c[nH]cn2)C(=O)N[C@@H](CCC(=O)O)C(=O)N[C@@H](CCCCN(CC(=O)O)CC(=O)O)C(=O)N[C@@H](CCCCNC(=O)COCCOCCNC(=O)CCCCCCCCCCCCCCCC(=O)O)C(N)=O)NC(=O)[C@H](Cc2c[nH]c3ccccc23)NC(=O)[C@H](CCCNC(=N)N)NC(=O)[C@@H](Cc2ccccc2)NC(=O)[C@H](Cc2c[nH]cn2)NC1=O) | 17
12 | Ac-KH[dF]RWEPPHE[Lys(CH2CO2H)2]K([AEEA-C17 diacid])-NH2 (lactam 1-6; SMILES CC(=O)N[C@H]1CCCCNC(=O)CC[C@@H](C(=O)N2CCC[C@H]2C(=O)N2CCC[C@H]2C(=O)N[C@@H](Cc2c[nH]cn2)C(=O)N[C@@H](CCC(=O)O)C(=O)N[C@@H](CCCCN(CC(=O)O)CC(=O)O)C(=O)N[C@@H](CCCCNC(=O)COCCOCCNC(=O)CCCCCCCCCCCCCCCC(=O)O)C(N)=O)NC(=O)[C@H](Cc2c[nH]c3ccccc23)NC(=O)[C@H](CCCNC(=N)N)NC(=O)[C@@H](Cc2ccccc2)NC(=O)[C@H](Cc2c[nH]cn2)NC1=O) | 348
13 | Ac-KH[dF]RWDPSHE[Lys(CH2CO2H)2]K([AEEA-C17 diacid])-NH2 (lactam 1-6; SMILES CC(=O)N[C@H]1CCCCNC(=O)C[C@@H](C(=O)N2CCC[C@H]2C(=O)N[C@@H](CO)C(=O)N[C@@H](Cc2c[nH]cn2)C(=O)N[C@@H](CCC(=O)O)C(=O)N[C@@H](CCCCN(CC(=O)O)CC(=O)O)C(=O)N[C@@H](CCCCNC(=O)COCCOCCNC(=O)CCCCCCCCCCCCCCCC(=O)O)C(N)=O)NC(=O)[C@H](Cc2c[nH]c3ccccc23)NC(=O)[C@H](CCCNC(=N)N)NC(=O)[C@@H](Cc2ccccc2)NC(=O)[C@H](Cc2c[nH]cn2)NC1=O) | 25
14 | Ac-[hCys]H[dF]RWCPPKD[Dap](NTA)K([AEEA-C14 diacid])-NH2 (disulfide 1-6; SMILES CC(=O)N[C@H]1CCSSC[C@@H](C(=O)N2CCC[C@H]2C(=O)N2CCC[C@H]2C(=O)N[C@@H](CCCCN)C(=O)N[C@@H](CC(=O)O)C(=O)N[C@@H](CNC(=O)CN(CC(=O)O)CC(=O)O)C(=O)N[C@@H](CCCCNC(=O)COCCOCCNC(=O)CCCCCCCCCCCCC(=O)O)C(N)=O)NC(=O)[C@H](Cc2c[nH]c3ccccc23)NC(=O)[C@H](CCCNC(=N)N)NC(=O)[C@@H](Cc2ccccc2)NC(=O)[C@H](Cc2c[nH]cn2)NC1=O) | 4.2
